Laboratory results from publication PMC314469, “Protein Interaction Networks by Proteome Peptide Scanning” (PLoS Biology, 2004).

T1: Boi1 SH3 (BOI1_YEAST), P38041
T1 chain: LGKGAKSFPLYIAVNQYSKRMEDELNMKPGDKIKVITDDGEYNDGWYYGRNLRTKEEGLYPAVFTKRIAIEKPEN

T2: Yhr016c SH3 (YSC84_YEAST), P32793
T2 chain: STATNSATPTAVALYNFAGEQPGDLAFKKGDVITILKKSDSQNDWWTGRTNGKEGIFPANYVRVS

T3: Boi2 SH3 (BOI2_YEAST), P39969
T3 chain: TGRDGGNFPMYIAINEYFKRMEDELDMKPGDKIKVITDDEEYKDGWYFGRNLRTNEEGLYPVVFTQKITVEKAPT

T4: Rvs167 SH3 (RV167_YEAST), P39743
T4 chain: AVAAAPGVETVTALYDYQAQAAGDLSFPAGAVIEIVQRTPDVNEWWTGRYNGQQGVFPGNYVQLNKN

T5: Yfr024 SH3 (LSB3_YEAST), P43603
T5 chain: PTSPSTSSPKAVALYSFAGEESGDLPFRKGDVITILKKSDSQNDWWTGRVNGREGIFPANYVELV


Tests used:
Experiment in all cases: SPOT array
[1] = molecular target: T1, Boi1 SH3 (BOI1_YEAST), P38041
[2] = molecular target: T2, Yhr016c SH3 (YSC84_YEAST), P32793
[3] = molecular target: T3, Boi2 SH3 (BOI2_YEAST), P39969
[4] = molecular target: T4, Rvs167 SH3 (RV167_YEAST), P39743
[5] = molecular target: T5, Yfr024 SH3 (LSB3_YEAST), P43603

normalised SPOT signal, Boehringer light units (BLU); mean over the file's lines of this peptide [1] | normalised SPOT signal, Boehringer light units (BLU); mean over the file's lines of this peptide [2] | normalised SPOT signal, Boehringer light units (BLU); mean over the file's lines of this peptide [3] | normalised SPOT signal, Boehringer light units (BLU); mean over the file's lines of this peptide [4] | normalised SPOT signal, Boehringer light units (BLU); mean over the file's lines of this peptide [5] | Binder
174 | 169 | 21.7 | 49.2 | 266 | QPKPGNPLRNARLN [YMR191W 37-50]
1720 | 104 | 57.8 | 62.5 | 522 | QGLPASPSRAALRY [YBR038W 55-68]
102 | 18200 | 46 | 1050 | 38500 | QNTPPLPPKPKSPH [YCL008C 175-188]
149 | 130 | 52.3 | 0 | 49.9 | QLLPNNPDKNNNGT [YKL159C 151-164]
14.1 | 148 | -0 | 23.6 | 116 | QNNPPKPQKPVPLN [YOR290C 415-428]
7410 | 8440 | 377 | 620 | 13200 | QGYPRQPQRPQRYH [YDR171W 27-40]
679 | 182 | 118 | 25.7 | 866 | QMNPKNPIRLGMAN [YOR227W 657-670]
51.9 | 418 | 23.1 | 45.6 | 440 | QGEPLDPKRPSTAS [YGL027C 141-154]
231 | 8570 | 282 | 737 | 35400 | QIFPKKPLRRTVMS [YDR182W 166-179]
2880 | 1440 | 1420 | 1140 | 4420 | QMRPYTPLRSPNSR [YOR093C 49-62]
85.7 | 334 | 23.8 | 62.7 | 70.2 | QLEPLAPYKFFDII [YLR430W 1690-1703]
63.2 | 64000 | 23 | 18500 | 36100 | QGPPNLPARDKSLV [YLL023C 9-22]
50.1 | 207 | 19.8 | 106 | 516 | QLTPLLPDKYFDSA [YBL066C 693-706]
170 | 101 | 71.9 | 42.5 | 3880 | QQKPAIPQKKSFLT [YPR171W 424-437]
427 | 601 | 68.9 | 90 | 1580 | QFVPIAPQRLNMIF [YMR247C 1015-1028]
87.7 | 92.2 | 49.5 | 67.5 | 69 | QLLPNVPDKVLVPG [YDL220C 391-404]
231 | 16000 | 83.2 | 8250 | 22700 | QGQPLPPPRGQVIL [YBR108W 287-300]
30.5 | 73.8 | 36.5 | 14.6 | 183 | QILPTKPVKIIEQN [YLR082C 68-81]
34100 | 13600 | 5900 | 11400 | 28800 | QLFPVRPVRVRHED [YDL150W 198-211]
331 | 176 | 43.4 | 156 | 365 | QKTPPSPAKPKQKT [YBR102C 26-39]
58.1 | 95.9 | 23.6 | 169 | 1610 | QPAPRIPSKDAIIS [YAL051W 100-113]
53.8 | 249 | 94.3 | 32.1 | 164 | QPLPTSPSKRFSSL [YOR372C 249-262]
